The results in this text go back to US20080058263A1 (published 2008).

Assay in all cases: receptor-Fc IP
The target of one test is T1, VEGFR-1-Fc (UniProt P17948 27-338).
T1 construct: domain: first three Ig domains; expressed in Drosophila S2 cells, purified on Protein A sepharose; also called VEGFR-1-Fc fusion protein; not shown: Fc fragment from the Signal-pIgPlus vector
In short, it runs like this:
(§1)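 Binding of ligand from sample supernatant measured by pentahistidine-antibody immunoprecipitation. IP mix: PBS with 1.5% BSA, 0.06% Tween 20, 3 μg/ml heparin and 400 ng/ml fusion protein, added 1:2 to sample supernatant.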

The target of the next test is T2, VEGFR-2-Fc (UniProt P35968 20-322).
T2 construct: domain: first 3 Ig domains; conditioned supernatant of 293T cells; also called VEGFR-2-Fc fusion protein; not shown: Fc fragment of the pIg vector
T2 sequence (P35968 20-322): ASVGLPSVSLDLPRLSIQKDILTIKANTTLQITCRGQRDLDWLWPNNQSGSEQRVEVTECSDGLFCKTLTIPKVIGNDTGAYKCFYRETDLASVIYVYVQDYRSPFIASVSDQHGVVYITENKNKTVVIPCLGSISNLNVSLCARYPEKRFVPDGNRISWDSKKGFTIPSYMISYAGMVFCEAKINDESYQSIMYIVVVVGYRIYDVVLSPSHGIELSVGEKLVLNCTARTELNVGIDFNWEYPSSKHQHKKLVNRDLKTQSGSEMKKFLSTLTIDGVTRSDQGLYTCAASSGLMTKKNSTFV
In short, it runs like this: as §1

A further test has as its target T3, VEGFR-3-Fc (UniProt P35916 25-328).
T3 construct: domain: first three Ig domains; conditioned supernatant of 293T cells; also called VEGFR-3-Fc fusion protein; not shown: Fc fragment of the pIg vector
T3 sequence (looked up): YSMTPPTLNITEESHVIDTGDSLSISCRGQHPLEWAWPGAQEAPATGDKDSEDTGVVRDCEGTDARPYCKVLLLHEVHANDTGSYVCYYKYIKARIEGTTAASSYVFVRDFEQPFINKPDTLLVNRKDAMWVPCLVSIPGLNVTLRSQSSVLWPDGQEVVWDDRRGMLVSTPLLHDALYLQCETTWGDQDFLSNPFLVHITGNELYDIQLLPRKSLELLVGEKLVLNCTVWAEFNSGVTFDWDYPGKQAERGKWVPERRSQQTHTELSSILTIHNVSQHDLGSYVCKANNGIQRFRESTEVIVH
In short, it runs like this:
as §1

T1 sequence (P17948 27-338): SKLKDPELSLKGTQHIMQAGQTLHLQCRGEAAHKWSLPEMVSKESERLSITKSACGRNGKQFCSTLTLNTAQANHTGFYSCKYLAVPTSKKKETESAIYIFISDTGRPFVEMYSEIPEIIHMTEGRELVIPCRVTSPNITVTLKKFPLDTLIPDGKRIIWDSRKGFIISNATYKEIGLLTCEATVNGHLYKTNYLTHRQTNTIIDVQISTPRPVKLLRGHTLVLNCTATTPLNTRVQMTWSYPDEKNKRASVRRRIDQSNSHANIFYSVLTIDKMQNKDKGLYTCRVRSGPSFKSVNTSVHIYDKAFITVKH

B1: 63-8 (ligand)
chain: GQNHHEVVKFMDVYQRSYCHPREVCIDVGKEYPDEIEYIFKPPCVSVYRCGGCCNSEGLQCMNTSTSYLSKTLFEIKPHQGQHIGEMSFANHTSCRCMSKLD
As for B1, the binding result in the test with VEGFR-1-Fc, in the test with VEGFR-2-Fc and in the test with VEGFR-3-Fc was “no binding” throughout.

B2: 13-6 (ligand)
chain: GQNHHEVVKFMDVYQRSYCHPIETLVDIFQEYPDEIEYIFKPPCVSVYRCGGCCNDEGLECMNTSTSYLSKTLFEIKPHQGQHIGEMSFANHTSCRCMSKLD
In the case of B2, the binding result with VEGFR-1-Fc, with VEGFR-2-Fc and with VEGFR-3-Fc was “no binding” each time.

B3: 43-6 (ligand)
chain: AHYNTEILKFMDVYQRSYCHPREVCIDVGKEYPDEIEYIFKPPCVSVYRCGGCCNDEGLECMNTSTSYLSKTLFEIKPHQGQHIGEMSFANHTSCRCMSKLD
Regarding B3, the binding result in the test with VEGFR-1-Fc, with VEGFR-2-Fc and with VEGFR-3-Fc was “no binding” each time.

B4: 61-6 (ligand)
chain: GQNHHEVVKFMDVYQRSYCHPREVCIDVGKEYPDEIEYIFKPSCVPLMRCGGCCNDEGLECMNTSTSYLSKTLFEIKPHQGQHIGEMSFANHTSCRCMSKLD
In the case of B4, the binding result in the test with VEGFR-1-Fc, in the test with VEGFR-2-Fc and with VEGFR-3-Fc was “no binding” in each case.

B5: 43-8 (ligand)
chain: AHYNTEILKFMDVYQRSYCHPREVCIDVGKEYPDEIEYIFKPPCVSVYRCGGCCNSEGLQCMNTSTSYLSKTLFEIKPHQGQHIGEMSFANHTSCRCMSKLD
Turning to B5, the binding result with VEGFR-1-Fc, with VEGFR-2-Fc and in the test with VEGFR-3-Fc was “no binding” each time.

B6: 62-6 (ligand)
chain: GQNHHEVVKFMDVYQRSYCHPREVCIDVGKEFGVATNTFFKPPCVSVYRCGGCCNDEGLECMNTSTSYLSKTLFEIKPHQGQHIGEMSFANHTSCRCMSKLD
For B6, the binding result in the test with VEGFR-1-Fc, with VEGFR-2-Fc and in the test with VEGFR-3-Fc was “no binding” in each case.

B7: 63-6 (ligand)
chain: GQNHHEVVKFMDVYQRSYCHPREVCIDVGKEYPDEIEYIFKPPCVSVYRCGGCCNDEGLECMNTSTSYLSKTLFEIKPHQGQHIGEMSFANHTSCRCMSKLD
Take B7: the binding result with VEGFR-1-Fc is “no binding”; with VEGFR-2-Fc it was “binds”; with VEGFR-3-Fc it was “no binding”.

B8: 61-8 (ligand)
chain: GQNHHEVVKFMDVYQRSYCHPREVCIDVGKEYPDEIEYIFKPSCVPLMRCGGCCNSEGLQCMNTSTSYLSKTLFEIKPHQGQHIGEMSFANHTSCRCMSKLD
Turning to B8, the binding result with VEGFR-1-Fc, with VEGFR-2-Fc and in the test with VEGFR-3-Fc was “no binding” each time.

B9: 13-8 (ligand)
chain: GQNHHEVVKFMDVYQRSYCHPIETLVDIFQEYPDEIEYIFKPPCVSVYRCGGCCNSEGLQCMNTSTSYLSKTLFEIKPHQGQHIGEMSFANHTSCRCMSKLD
Consider B9, for which the binding result with VEGFR-1-Fc, in the test with VEGFR-2-Fc and with VEGFR-3-Fc was “no binding” throughout.

B10: 62-8 (ligand)
chain: GQNHHEVVKFMDVYQRSYCHPREVCIDVGKEFGVATNTFFKPPCVSVYRCGGCCNSEGLQCMNTSTSYLSKTLFEIKPHQGQHIGEMSFANHTSCRCMSKLD
For the molecule B10, the binding result with VEGFR-1-Fc is “no binding”; with VEGFR-2-Fc, “binds”; with VEGFR-3-Fc, “no binding”.

B11: 61-4 (ligand)
chain: GQNHHEVVKFMDVYQRSYCHPREVCIDVGKEYPDEIEYIFKPSCVPLMRCGGCCNSEGLQCMNTSTSYLSKTLFEIKPHQGQHIGEMSFLQHNKCECRPKKD
Consider B11, for which the binding result in the test with VEGFR-1-Fc, with VEGFR-2-Fc and with VEGFR-3-Fc was “no binding” each time.

B12: 64-8 (ligand)
chain: GQNHHEVVKFMDVYQRSYCHPREVCIDVGKEFGVATNTFFKPSCVPLMRCGGCCNSEGLQCMNTSTSYLSKTLFEIKPHQGQHIGEMSFANHTSCRCMSKLD
As to B12, the binding result in the test with VEGFR-1-Fc, with VEGFR-2-Fc and with VEGFR-3-Fc was “no binding” each time.

B13: 62-1 (ligand)
chain: GQNHHEVVKFMDVYQRSYCHPREVCIDVGKEFGVATNTFFKPPCVSVYRCGGCCNDEGLECVPTEESNITMQIMRIKPHQGQHIGEMSFLQHNKCECRPKKD
Take B13: the values for the binding result in the test with VEGFR-1-Fc, with VEGFR-2-Fc and in the test with VEGFR-3-Fc were “binds”, “no binding” and “no binding”, respectively.

B14: 62-14 (ligand)
chain: GQNHHEVVKFMDVYQRSYCHPREVCIDVGKEFGVATNTFFKPPCVSVYRCGGCCNDEGLECMNTSTSYLSKTLFEITVPLSQGPKPVTISFANHTSCRCMSKLD
Consider B14, for which the binding result with VEGFR-1-Fc, with VEGFR-2-Fc and in the test with VEGFR-3-Fc was “no binding” in each case.

B15: 44-14 (ligand)
chain: AHYNTEILKFMDVYQRSYCHPREVCIDVGKEFGVATNTFFKPSCVPLMRCGGCCNDEGLECMNTSTSYLSKTLFEITVPLSQGPKPVTISFANHTSCRCMSKLD
Consider B15, for which the binding result with VEGFR-1-Fc, in the test with VEGFR-2-Fc and in the test with VEGFR-3-Fc was “no binding” in each case.

B16: 64-10 (ligand)
chain: GQNHHEVVKFMDVYQRSYCHPREVCIDVGKEFGVATNTFFKPSCVPLMRCGGCCNDEGLECMNTSTSYLSKTLFEITVPLSQGPKPVTISFLQHNKCECRPKKD
For the molecule B16, the binding result with VEGFR-1-Fc, in the test with VEGFR-2-Fc and with VEGFR-3-Fc was “no binding” throughout.

B17: 63-16 (ligand)
chain: GQNHHEVVKFMDVYQRSYCHPREVCIDVGKEYPDEIEYIFKPPCVSVYRCGGCCNSEGLQCMNTSTSYLSKTLFEITVPLSQGPKPVTISFANHTSCRCMSKLD
As to B17, the binding result with VEGFR-1-Fc, with VEGFR-2-Fc and with VEGFR-3-Fc was “no binding” throughout.

B18: 63-14 (ligand)
chain: GQNHHEVVKFMDVYQRSYCHPREVCIDVGKEYPDEIEYIFKPPCVSVYRCGGCCNDEGLECMNTSTSYLSKTLFEITVPLSQGPKPVTISFANHTSCRCMSKLD
Turning to B18, the binding result with VEGFR-1-Fc, with VEGFR-2-Fc and with VEGFR-3-Fc was “no binding” throughout.

B19: 62-12 (ligand)
chain: GQNHHEVVKFMDVYQRSYCHPREVCIDVGKEFGVATNTFFKPPCVSVYRCGGCCNSEGLQCMNTSTSYLSKTLFEITVPLSQGPKPVTISFLQHNKCECRPKKD
B19: the binding result in the test with VEGFR-1-Fc, in the test with VEGFR-2-Fc and with VEGFR-3-Fc was “no binding” each time.

B20: 62-16 (ligand)
chain: GQNHHEVVKFMDVYQRSYCHPREVCIDVGKEFGVATNTFFKPPCVSVYRCGGCCNSEGLQCMNTSTSYLSKTLFEITVPLSQGPKPVTISFANHTSCRCMSKLD
On to B20, for which the binding result with VEGFR-1-Fc, with VEGFR-2-Fc and in the test with VEGFR-3-Fc was “no binding” in each case.

B21: 42-16 (ligand)
chain: AHYNTEILKFMDVYQRSYCHPREVCIDVGKEFGVATNTFFKPPCVSVYRCGGCCNSEGLQCMNTSTSYLSKTLFEITVPLSQGPKPVTISFANHTSCRCMSKLD
Turning to B21, the binding result with VEGFR-1-Fc, in the test with VEGFR-2-Fc and with VEGFR-3-Fc was “no binding” each time.

B22: 62-10 (ligand)
chain: GQNHHEVVKFMDVYQRSYCHPREVCIDVGKEFGVATNTFFKPPCVSVYRCGGCCNDEGLECMNTSTSYLSKTLFEITVPLSQGPKPVTISFLQHNKCECRPKKD
Consider B22, for which the values for the binding result with VEGFR-1-Fc, with VEGFR-2-Fc and with VEGFR-3-Fc were “no binding”, “binds” and “no binding”, respectively.

B23: 42-14 (ligand)
chain: AHYNTEILKFMDVYQRSYCHPREVCIDVGKEFGVATNTFFKPPCVSVYRCGGCCNDEGLECMNTSTSYLSKTLFEITVPLSQGPKPVTISFANHTSCRCMSKLD
Turning to B23, the binding result in the test with VEGFR-1-Fc, with VEGFR-2-Fc and with VEGFR-3-Fc was “no binding” throughout.
